This is an account of results in publication PMC4070910, “Cathepsin S Signals via PAR2 and Generates a Novel Tethered Ligand Receptor Agonist” (PLoS ONE, 2014).

Read-outs that look alike come from different tables or passages of the source.

For one experiment, the system named is human PAR2. Briefly: Fura-2 calcium imaging in HeLa cells transfected with PAR2 cDNA. The format is cell-based. Conditions: PAR2-transfected HeLa; KVDGTS 100 µM, cathepsin S 2 µM, papain 2 µM, trypsin 10 nM; second agent after up to 60 minutes; room temperature. The method, then: Human PAR2 cDNA was cloned as an Xho I-Hind III fragment (1206 bp) into pcDNA3.1(−). 10 µg of DNA were diluted into 0.5 ml of DMEM and mixed with 0.5 ml of DMEM containing 10 µl of Lipofectamine 2000 transfection reagent and incubated at room temperature for 20 minutes. HeLa cells were grown to confluence, trypsinized and 1×10^6 cells were pelleted in a 15 ml tube by centrifugation at 1000 rpm for 5 minutes. The DMEM-Lipofectamine 2000-DNA mixture (1 ml) was added to the cell pellet, resuspended gently and incubated at room temperature for 20 minutes. Four ml of complete DMEM with 10% FBS were added to the tube, mixed by inverting the tube several times, plated into a 96-well glass bottom plate at 20,000 cells/well, and placed in a 37°C CO2 incubator. HeLa cells transfected with vector alone or salmon sperm DNA (shown in the figures) were plated as a control. The medium was aspirated two days after transfection. Fura-2 was used as a ratiometric calcium-sensitive indicator as follows. 100 µl of complete DMEM containing 2 µM of Fura-2 were added to each well and left at room temperature in the dark for 1 hr. Following loading with Fura-2, the medium was aspirated and replaced with 90 µl of HEPES-buffered saline (20 mM HEPES, 115 mM NaCl, 5.4 mM KCl, 2 mM CaCl2, 0.8 mM MgCl2, 13.8 mM glucose, pH 7.4).
Imaging was performed using a Zeiss Axiovert 200 M microscope platform equipped with a flipping filter wheel for ratiometric imaging. Axiovision software, version 4.6 was used for image analysis of the cells which were excited at 340 nm and 380 nm. Ten µl of peptide agonist were added at 20 seconds after the start of the excitation procedure. Images were taken every 5 seconds, including at zero time, during a 3-minute period or longer if required. The software later analyzed all images taken during each excitation period. Typically, ratiometric changes were measured in 10–20 cells in each image. An average of the fluorescence of the cells in each image was calculated and plotted against time in seconds.
HeLa cells transfected with PAR2 cDNA were subjected to ratiometric imaging as described above with PAR2 peptides, SLIGRL, KVDGTS, and SLIGKVDGTS in addition to the reverse peptides LRGILS and STGDVK at concentrations from 1 nM - 1 mM. Each of the concentration-dependent readings was performed in triplicate. Maximum intensities at each of the dilutions were calculated and plotted against concentration using GraphPad/PRISM software version 6.0 (Irvine, CA). Error bars represent +/−SEM.

The next experiment deals with PAR2. Conditions: in vitro, cited from earlier work. The text has this: PAR2 signaling has been implicated in the development of inflammatory and bowel diseases, asthma, itch and pain. The receptor is expressed on many types of cells including keratinocytes, sensory neurons, fibroblasts, endothelial cells, and inflammatory cells, [3]. Consistent with this broad expression, PAR2 is involved in numerous physiologic and pathophysiologic processes in response to both endogenous and exogenous proteases.

B1: papain: plant protease (protein, UniProt P00784 134-345, looked up)
Papain: IPEYVDWRQKGAVTPVKNQGSCGSCWAFSAVVTIEGIIKIRTGNLNEYSEQELLDCDRRSYGCNGGYPWSALQLVAQYGIHYRNTYPYEGVQRYCRSREKGPYAAKTDGVRQVQPYNEGALLYSIANQPVSVVLEAAGKDFQLYRGGIFVGPCGNKVDHAVAAVGYGPNYILIKNSWGTGWGENGYIRIKRGTGNSYGVCGLYTSSFYPVKN
Consider B1, for which the “effect as first agent on calcium response to second agent (in words)” value in the experiment with human PAR2 was “failed to induce a calcium response at any time up to 60 minutes”. For the same molecule, in the experiment with PAR2 (plant proteases), the “PAR2 activation (in words)” value was “supporting activation”.

B2: der p 1: dust mite allergen (protein, UniProt P08176 99-320, looked up)
Peptidase 1: TNACSINGNAPAEIDLRQMRTVTPIRMQGGCGSCWAFSGVAATESAYLAYRNQSLDLAEQELVDCASQHGCHGDTIPRGIEYIQHNGVVQESYYRYVAREQSCRRPNAQRFGISNYCQIYPPNVNKIREALAQTHSAIAVIIGIKDLDAFRHYDGRTIIQRDNGYQPNYHAVNIVGYSNAQGVDYWIVRNSWDTNWGDNGYGYFAANIDLMMIEEYPYVVIL
Regarding B2, the “PAR2 activation (in words)” value in the experiment with PAR2 (dust mite allergen) was “supporting activation”.
